# In publication PMC4361902 (Nature, 2014):
# B1: TolC (tolC1392, coexpressed from pRSFduet-1-acrA-polyGS-acrZHis5-tolC1392) (natural protein)
# chain: ENLMQVYQQARLSNPELRKSAADRDAAFEKINEARSPLLPQLGLGADYTYSNGYRDANGINSNATSASLQLTQSIFDMSKWRALTLQEKAAGIQDVTYQTDQQTLILNTATAYFNVLNAIDVLSYTQAQKEAIYRQLDQTTQRFNVGLVAITDVQNARAQYDTVLANEVTARNNLDNAVEQLRQITGNYYPELAALNVENFKTDKPQPVNALLKEAEKRNLSLLQARLSQDLAREQIRQAQDGHLPTLDLTASTGISDTSYSGSKTRGAAGTQYDDSNMGQNKVGLSFSLPIYQGGMVNSQVKQAQYNFVGASEQLESAHRSVVQTVRSSFNNINASISSINAYKQAVVSAQSSLDAMEAGYSVGTRTIVDVLDATTTLYNAKQELANARYNYLINQLNIKSALGTLNEQDLLALNNALSKPVSTNPENVAPQTPEQNAIAD
# B2: AcrB as it stands in the efflux pump assembly (AcrB moiety of the AcrA-AcrB fusion) (domain or fragment, E. coli, UniProt P31224 1-1047, looked up)
# chain: MPNFFIDRPIFAWVIAIIIMLAGGLAILKLPVAQYPTIAPPAVTISASYPGADAKTVQDTVTQVIEQNMNGIDNLMYMSSNSDSTGTVQITLTFESGTDADIAQVQVQNKLQLAMPLLPQEVQQQGVSVEKSSSSFLMVVGVINTDGTMTQEDISDYVAANMKDAISRTSGVGDVQLFGSQYAMRIWMNPNELNKFQLTPVDVITAIKAQNAQVAAGQLGGTPPVKGQQLNASIIAQTRLTSTEEFGKILLKVNQDGSRVLLRDVAKIELGGENYDIIAEFNGQPASGLGIKLATGANALDTAAAIRAELAKMEPFFPSGLKIVYPYDTTPFVKISIHEVVKTLVEAIILVFLVMYLFLQNFRATLIPTIAVPVVLLGTFAVLAAFGFSINTLTMFGMVLAIGLLVDDAIVVVENVERVMAEEGLPPKEATRKSMGQIQGALVGIAMVLSAVFVPMAFFGGSTGAIYRQFSITIVSAMALSVLVALILTPALCATMLKPIAKGDHGEGKKGFFGWFNRMFEKSTHHYTDSVGGILRSTGRYLVLYLIIVVGMAYLFVRLPSSFLPDEDQGVFMTMVQLPAGATQERTQKVLNEVTHYYLTKEKNNVESVFAVNGFGFAGRGQNTGIAFVSLKDWADRPGEENKVEAITMRATRAFSQIKDAMVFAFNLPAIVELGTATGFDFELIDQAGLGHEKLTQARNQLLAEAAKHPDMLTSVRPNGLEDTPQFKIDIDQEKAQALGVSINDINTTLGAAWGGSYVNDFIDRGRVKKVYVMSEAKYRMLPDDIGDWYVRAADGQMVPFSAFSSSRWEYGSPRLERYNGLPSMEILGQAAPGKSTGEAMELMEQLASKLPTGVGYDWTGMSYQERLSGNQAPSLYAISLIVVFLCLAALYESWSIPFSVMLVVPLGVIGALLAATFRGLTNDVYFQVGLLTTIGLSAKNAILIVEFAKDLMDKEGKGLIEATLDAVRMRLRPILMTSLAFILGVMPLVISTGAGSGAQNAVGTGVMGGMVTATVLAIFFVPVFFVVVRRRFSRKNEDIEHSHTVD
# B3: AcrB with the C-terminal histidines removed (pET21a-acrBΔHis) (natural protein, E. coli, UniProt P31224 1-1047, looked up)
# chain: B2 chain
# Assays:
# cryo-EM structure = biological target: the molecule itself; assay: cryo-EM structure
# crystal structure = biological target: the molecule itself; assay: crystal structure
Protein,stoichiometry N (cryo-EM structure),stoichiometry N (crystal structure)
B1,3,–
B2,3,–
B3,–,3
